The text below walks through data of patent US20260167699A1 (Chugai, published 2026).

The assay concerns the target T1, FcγRIIIa extracellular domain, C-terminal His tag (human, UniProt P08637 17-208).
T1 construct: extracellular domain; also called 3a
Briefly: SPR, binding activity relative to GpH7-A5/GpH7-B3/GpL16-k0 (=100). In general terms: SPR reads the build-up and loss of mass on a sensor chip optically.

T1 sequence (P08637 other isoform, or with tags, fused parts or gaps): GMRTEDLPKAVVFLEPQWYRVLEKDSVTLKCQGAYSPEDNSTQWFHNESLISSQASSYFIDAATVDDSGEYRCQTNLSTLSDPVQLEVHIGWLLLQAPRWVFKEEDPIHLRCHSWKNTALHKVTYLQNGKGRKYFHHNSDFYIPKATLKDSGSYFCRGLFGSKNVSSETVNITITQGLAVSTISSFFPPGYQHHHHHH

B1: GpH7-A5/GpH7-B3 variant S324_06M/GpL16-k0 (antibody, human IgG1, kappa)
heavy 1: not shown
heavy 2: not shown
light: DIVMTQSPLSLPVTPGEPASISCQASESLVHSNRNTYLHWYLQKPGQSPQLLIYKVSNRFSGVPDRFSGSGSGTDFTLKISRVEAEDVGVYYCSQNTHVPPTFGQGTKVEIERTVAAPSVFIFPPSDEQLKSGTASVVCLLNNFYPREAKVQWKVDNALQSGNSQESVTEQDSKDSTYSLSSTLTLSKADYEKHKVYACEVTHQGLSSPVTKSFNRGEC
notes: He Ab; copies: 1 + 1 + 2
In the case of B1, the “He/Con 3a” value is 124%.

B2: GpH7-A5/GpH7-B3 variant V266_06M/GpL16-k0 (antibody, human IgG1, kappa)
heavy 1: not shown
heavy 2: not shown
light: DIVMTQSPLSLPVTPGEPASISCQASESLVHSNRNTYLHWYLQKPGQSPQLLIYKVSNRFSGVPDRFSGSGSGTDFTLKISRVEAEDVGVYYCSQNTHVPPTFGQGTKVEIERTVAAPSVFIFPPSDEQLKSGTASVVCLLNNFYPREAKVQWKVDNALQSGNSQESVTEQDSKDSTYSLSSTLTLSKADYEKHKVYACEVTHQGLSSPVTKSFNRGEC
notes: He Ab; copies: 1 + 1 + 2
As to B2, the “He/Con 3a” value came to 84.9%.

B3: GpH7-A5/GpH7-B3 variant S324_18N/GpL16-k0 (antibody, human IgG1, kappa)
heavy 1: not shown
heavy 2: not shown
light: DIVMTQSPLSLPVTPGEPASISCQASESLVHSNRNTYLHWYLQKPGQSPQLLIYKVSNRFSGVPDRFSGSGSGTDFTLKISRVEAEDVGVYYCSQNTHVPPTFGQGTKVEIERTVAAPSVFIFPPSDEQLKSGTASVVCLLNNFYPREAKVQWKVDNALQSGNSQESVTEQDSKDSTYSLSSTLTLSKADYEKHKVYACEVTHQGLSSPVTKSFNRGEC
notes: He Ab; copies: 1 + 1 + 2
With B3, the “He/Con 3a” value was determined as 103%.

B4: GpH7-A5/GpH7-B3 variant S324_16H/GpL16-k0 (antibody, human IgG1, kappa)
heavy 1: not shown
heavy 2: not shown
light: DIVMTQSPLSLPVTPGEPASISCQASESLVHSNRNTYLHWYLQKPGQSPQLLIYKVSNRFSGVPDRFSGSGSGTDFTLKISRVEAEDVGVYYCSQNTHVPPTFGQGTKVEIERTVAAPSVFIFPPSDEQLKSGTASVVCLLNNFYPREAKVQWKVDNALQSGNSQESVTEQDSKDSTYSLSSTLTLSKADYEKHKVYACEVTHQGLSSPVTKSFNRGEC
notes: He Ab; copies: 1 + 1 + 2
Turning to B4, the “He/Con 3a” value was found to be 113%.

B5: GpH7-A5/GpH7-B3 variant S324_19Q/GpL16-k0 (antibody, human IgG1, kappa)
heavy 1: not shown
heavy 2: not shown
light: DIVMTQSPLSLPVTPGEPASISCQASESLVHSNRNTYLHWYLQKPGQSPQLLIYKVSNRFSGVPDRFSGSGSGTDFTLKISRVEAEDVGVYYCSQNTHVPPTFGQGTKVEIERTVAAPSVFIFPPSDEQLKSGTASVVCLLNNFYPREAKVQWKVDNALQSGNSQESVTEQDSKDSTYSLSSTLTLSKADYEKHKVYACEVTHQGLSSPVTKSFNRGEC
notes: He Ab; copies: 1 + 1 + 2
Take B5: the “He/Con 3a” value came out at 96.2%.

B6: GpH7-A5/GpH7-B3 variant S324_09D/GpL16-k0 (antibody, human IgG1, kappa)
heavy 1: not shown
heavy 2: not shown
light: DIVMTQSPLSLPVTPGEPASISCQASESLVHSNRNTYLHWYLQKPGQSPQLLIYKVSNRFSGVPDRFSGSGSGTDFTLKISRVEAEDVGVYYCSQNTHVPPTFGQGTKVEIERTVAAPSVFIFPPSDEQLKSGTASVVCLLNNFYPREAKVQWKVDNALQSGNSQESVTEQDSKDSTYSLSSTLTLSKADYEKHKVYACEVTHQGLSSPVTKSFNRGEC
notes: He Ab; copies: 1 + 1 + 2
As to B6, the “He/Con 3a” value stood at 110%.

B7: GpH7-A5/GpH7-B3 variant S324_12R/GpL16-k0 (antibody, human IgG1, kappa)
heavy 1: not shown
heavy 2: not shown
light: DIVMTQSPLSLPVTPGEPASISCQASESLVHSNRNTYLHWYLQKPGQSPQLLIYKVSNRFSGVPDRFSGSGSGTDFTLKISRVEAEDVGVYYCSQNTHVPPTFGQGTKVEIERTVAAPSVFIFPPSDEQLKSGTASVVCLLNNFYPREAKVQWKVDNALQSGNSQESVTEQDSKDSTYSLSSTLTLSKADYEKHKVYACEVTHQGLSSPVTKSFNRGEC
notes: He Ab; copies: 1 + 1 + 2
Take B7: the “He/Con 3a” value came to 98.1%.

B8: GpH7-A5/GpH7-B3 variant V266_07I/GpL16-k0 (antibody, human IgG1, kappa)
heavy 1: not shown
heavy 2: not shown
light: DIVMTQSPLSLPVTPGEPASISCQASESLVHSNRNTYLHWYLQKPGQSPQLLIYKVSNRFSGVPDRFSGSGSGTDFTLKISRVEAEDVGVYYCSQNTHVPPTFGQGTKVEIERTVAAPSVFIFPPSDEQLKSGTASVVCLLNNFYPREAKVQWKVDNALQSGNSQESVTEQDSKDSTYSLSSTLTLSKADYEKHKVYACEVTHQGLSSPVTKSFNRGEC
notes: He Ab; copies: 1 + 1 + 2
On to B8, for which the “He/Con 3a” value turned out to be 113%.

B9: GpH7-A5/GpH7-B3 variant S324_15Y/GpL16-k0 (antibody, human IgG1, kappa)
heavy 1: not shown
heavy 2: not shown
light: DIVMTQSPLSLPVTPGEPASISCQASESLVHSNRNTYLHWYLQKPGQSPQLLIYKVSNRFSGVPDRFSGSGSGTDFTLKISRVEAEDVGVYYCSQNTHVPPTFGQGTKVEIERTVAAPSVFIFPPSDEQLKSGTASVVCLLNNFYPREAKVQWKVDNALQSGNSQESVTEQDSKDSTYSLSSTLTLSKADYEKHKVYACEVTHQGLSSPVTKSFNRGEC
notes: He Ab; copies: 1 + 1 + 2
With B9, the “He/Con 3a” value amounted to 110%.

B10: GpH7-A5/GpH7-B3 variant V266_02A/GpL16-k0 (antibody, human IgG1, kappa)
heavy 1: not shown
heavy 2: not shown
light: DIVMTQSPLSLPVTPGEPASISCQASESLVHSNRNTYLHWYLQKPGQSPQLLIYKVSNRFSGVPDRFSGSGSGTDFTLKISRVEAEDVGVYYCSQNTHVPPTFGQGTKVEIERTVAAPSVFIFPPSDEQLKSGTASVVCLLNNFYPREAKVQWKVDNALQSGNSQESVTEQDSKDSTYSLSSTLTLSKADYEKHKVYACEVTHQGLSSPVTKSFNRGEC
notes: He Ab; copies: 1 + 1 + 2
B10: the “He/Con 3a” value was 56.8%.

B11: GpH7-A5/GpH7-B3 variant V266_08L/GpL16-k0 (antibody, human IgG1, kappa)
heavy 1: not shown
heavy 2: not shown
light: DIVMTQSPLSLPVTPGEPASISCQASESLVHSNRNTYLHWYLQKPGQSPQLLIYKVSNRFSGVPDRFSGSGSGTDFTLKISRVEAEDVGVYYCSQNTHVPPTFGQGTKVEIERTVAAPSVFIFPPSDEQLKSGTASVVCLLNNFYPREAKVQWKVDNALQSGNSQESVTEQDSKDSTYSLSSTLTLSKADYEKHKVYACEVTHQGLSSPVTKSFNRGEC
notes: He Ab; copies: 1 + 1 + 2
In the case of B11, the “He/Con 3a” value was determined as 117%.

B12: GpH7-A5/GpH7-B3 variant S324_11K/GpL16-k0 (antibody, human IgG1, kappa)
heavy 1: not shown
heavy 2: not shown
light: DIVMTQSPLSLPVTPGEPASISCQASESLVHSNRNTYLHWYLQKPGQSPQLLIYKVSNRFSGVPDRFSGSGSGTDFTLKISRVEAEDVGVYYCSQNTHVPPTFGQGTKVEIERTVAAPSVFIFPPSDEQLKSGTASVVCLLNNFYPREAKVQWKVDNALQSGNSQESVTEQDSKDSTYSLSSTLTLSKADYEKHKVYACEVTHQGLSSPVTKSFNRGEC
notes: He Ab; copies: 1 + 1 + 2
On to B12, for which the “He/Con 3a” value came to 90.2%.

B13: GpH7-A5/GpH7-B3 variant S324_14T/GpL16-k0 (antibody, human IgG1, kappa)
heavy 1: not shown
heavy 2: not shown
light: DIVMTQSPLSLPVTPGEPASISCQASESLVHSNRNTYLHWYLQKPGQSPQLLIYKVSNRFSGVPDRFSGSGSGTDFTLKISRVEAEDVGVYYCSQNTHVPPTFGQGTKVEIERTVAAPSVFIFPPSDEQLKSGTASVVCLLNNFYPREAKVQWKVDNALQSGNSQESVTEQDSKDSTYSLSSTLTLSKADYEKHKVYACEVTHQGLSSPVTKSFNRGEC
notes: He Ab; copies: 1 + 1 + 2
As for B13, the “He/Con 3a” value is 112%.

B14: GpH7-A5/GpH7-B3 variant S324_08L/GpL16-k0 (antibody, human IgG1, kappa)
heavy 1: not shown
heavy 2: not shown
light: DIVMTQSPLSLPVTPGEPASISCQASESLVHSNRNTYLHWYLQKPGQSPQLLIYKVSNRFSGVPDRFSGSGSGTDFTLKISRVEAEDVGVYYCSQNTHVPPTFGQGTKVEIERTVAAPSVFIFPPSDEQLKSGTASVVCLLNNFYPREAKVQWKVDNALQSGNSQESVTEQDSKDSTYSLSSTLTLSKADYEKHKVYACEVTHQGLSSPVTKSFNRGEC
notes: He Ab; copies: 1 + 1 + 2
In the case of B14, the “He/Con 3a” value came to 95.5%.

B15: GpH7-A5/GpH7-B3 variant S324_07I/GpL16-k0 (antibody, human IgG1, kappa)
heavy 1: not shown
heavy 2: not shown
light: DIVMTQSPLSLPVTPGEPASISCQASESLVHSNRNTYLHWYLQKPGQSPQLLIYKVSNRFSGVPDRFSGSGSGTDFTLKISRVEAEDVGVYYCSQNTHVPPTFGQGTKVEIERTVAAPSVFIFPPSDEQLKSGTASVVCLLNNFYPREAKVQWKVDNALQSGNSQESVTEQDSKDSTYSLSSTLTLSKADYEKHKVYACEVTHQGLSSPVTKSFNRGEC
notes: He Ab; copies: 1 + 1 + 2
For B15, the “He/Con 3a” value was found to be 101%.

B16: GpH7-A5/GpH7-B3 variant S324_10E/GpL16-k0 (antibody, human IgG1, kappa)
heavy 1: not shown
heavy 2: not shown
light: DIVMTQSPLSLPVTPGEPASISCQASESLVHSNRNTYLHWYLQKPGQSPQLLIYKVSNRFSGVPDRFSGSGSGTDFTLKISRVEAEDVGVYYCSQNTHVPPTFGQGTKVEIERTVAAPSVFIFPPSDEQLKSGTASVVCLLNNFYPREAKVQWKVDNALQSGNSQESVTEQDSKDSTYSLSSTLTLSKADYEKHKVYACEVTHQGLSSPVTKSFNRGEC
notes: He Ab; copies: 1 + 1 + 2
As to B16, the “He/Con 3a” value worked out at 108%.
